Reference: US20220298478A1

Target: full length mesothelin (NM_005823) on target cells (human) (UniProt Q13421)
Assay: cell-based or functional assay

Sequence of full length mesothelin (NM_005823) on target cells (human) (Q13421 other isoform, or with tags, fused parts or gaps limits assumed): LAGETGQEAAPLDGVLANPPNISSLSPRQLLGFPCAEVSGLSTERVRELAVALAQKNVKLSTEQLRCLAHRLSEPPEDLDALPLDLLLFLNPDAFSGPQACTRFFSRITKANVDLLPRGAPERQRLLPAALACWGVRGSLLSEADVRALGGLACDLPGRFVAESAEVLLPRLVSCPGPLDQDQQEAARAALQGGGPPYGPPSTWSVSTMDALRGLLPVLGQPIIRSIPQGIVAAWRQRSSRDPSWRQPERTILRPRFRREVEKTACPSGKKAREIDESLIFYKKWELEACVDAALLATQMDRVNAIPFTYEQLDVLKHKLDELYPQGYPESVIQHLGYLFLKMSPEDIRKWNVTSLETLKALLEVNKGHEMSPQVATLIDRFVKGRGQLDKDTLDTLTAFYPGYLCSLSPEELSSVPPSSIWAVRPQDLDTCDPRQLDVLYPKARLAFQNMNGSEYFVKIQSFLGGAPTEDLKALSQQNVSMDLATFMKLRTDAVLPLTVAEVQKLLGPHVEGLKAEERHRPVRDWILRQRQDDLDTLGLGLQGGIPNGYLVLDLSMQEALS

B1: SD1 CD3ε-TFP (protein, part only; not given: linker and CD3 epsilon subunit, part only)
chain, part: EVQLVESGGGLVQPGGSLRLSCAASGGDWSANFMYWYRQAPGKQRELVARISGRGVVDYVESVKGRFTISRDNSKNTLYLQMNSLRAEDTAVYYCAVASYWGQGTLVTVSS
Which results are given for B1?
tumor cell lysis (luciferase assay), E:T 1-to-1, patients 1, 2, 4 and 5: 50%; tumor cell lysis (luciferase assay), E:T 1-to-5, patients 4 and 5: 50%; tumor cell lysis (luciferase assay), E:T 5-to-1, patient 3: 35%; tumor cell lysis (luciferase assay), E:T 5-to-1, patients 1, 2, 4 and 5: 75 to 97%
